Biological target: recombinant extracellular domain of EGFR (human) (UniProt P00533)
Experiment: MST

With “recombinant epiregulin (from UniProt O14944) (ligand)” as the substance, how does the Kd read?
Its Kd is 500 nM.

Reference: article doi:10.1101/2025.05.02.651972
